Measured values reported in PMC4231161.

What was measured:
[1] = biological target: myosin light chain 1 (MLC1) (Toxoplasma gondii (endogenous in tachyzoites)); assay: co-IP; polyclonal anti-MLC1 or anti-GAP45 antibodies on [35S]-labelled wild type (RH) and MyoA-KO parasites and on MyoA-iKO parasites +/- ATc, Triton X-100 lysate, autoradiography, bands quantified with ImageJ
[2] = biological target: gliding-associated protein GAP45 (Toxoplasma gondii (endogenous in tachyzoites)) (UniProt Q7Z289); assay: as above

myosin C (MyoC) (natural protein) gave a more MyoC co-precipitated in the absence of MyoA than in its presence [1] of 50% and a more MyoC co-precipitated in the absence of MyoA than in its presence [2] of 50%.
